Publication doi:10.1101/2020.05.30.125013

B1: MlaB from Acinetobacter baumannii (natural protein)
chain: MVQYLNQELVVSGKIDFENAEQQYQAGLAIIKKQTSFPLIVDLKQLEHGNTLALAVLVQWLRQTPQKSGLHFKNVPEKMLKIIQACHLQEDLHLV

Columns and labels:
[1] = target: MlaD from Acinetobacter baumannii (Acinetobacter baumannii) (UniProt V5V921); test: cryo-EM structure
[2] = target: MlaF from Acinetobacter baumannii (Acinetobacter baumannii); test: cryo-EM structure

Molecule | stoichiometry N [1] | percent of particles with MlaB bound to both MlaF copies [2] [%]
MlaD from Acinetobacter baumannii (from UniProt V5V921 1-226) (natural protein) | 6 | 
B1 |  | 50
